Tests used:
[1] = biological target: human rod outer segment guanylate cyclase 1 (ROS-GC1), mutant P575L (human) (UniProt Q02846)
[2] = biological target: human rod outer segment guanylate cyclase 1 (ROS-GC1), wildtype (human) (UniProt Q02846)

B1: bovine guanylate cyclase-activating protein 2 (GCAP2), myristoylated (natural protein)
chain: MGQQFSWEEAEENGAVGAADAAQLQEWYKKFLEECPSGTLFMHEFKRFFKVPDNEEATQYVEAMFRAFDTNGDNTIDFLEYVAALNLVLRGTLEHKLKWTFKIYDKDRNGCIDRQELLDIVESIYKLKKACSVEVEAEQQGKLLTPEEVVDRIFLLVDENGDGQLSLNEFVEGARRDKWVMKMLQMDLNPSSWISQQRRKSAMF
modifications: myristoylated (degree of myristoylation typically higher than 90%)
EC50 of guanylate cyclase activation (cGMP produced) with 0–20 μM Ca2+-free, Mg2+-bound GCAP2, HEK cell membranes, 30 min [1]: 7.44 µM | EC50 of guanylate cyclase activation (cGMP produced) with 0–20 μM Ca2+-free, Mg2+-bound GCAP2, HEK cell membranes, 30 min [2]: 8.34 µM

B2: bovine guanylate cyclase-activating protein 1 (GCAP1), D6S mutant, myristoylated (natural protein)
chain: MGNIMSGKSVEELSSTECHQWYKKFMTECPSGQLTLYEFRQFFGLKNLSPWASQYVEQMFETFDFNKDGYIDFMEYVAALSLVLKGKVEQKLRWYFKLYDVDGNGCIDRDELLTIIRAIRAINPCSDSTMTAEEFTDTVFSKIDVNGDGELSLEEFMEGVQKDQMLLDTLTRSLDLTRIVRRLQNGEQDEEGASGRETEAAEADG
modifications: myristoylated (degree of myristoylation typically higher than 90%)
EC50 of guanylate cyclase activation (cGMP produced) with 0–20 μM Ca2+-free, Mg2+-bound GCAP1, HEK cell membranes, 30 min [1]: 3.32 µM | EC50 of guanylate cyclase activation (cGMP produced) with 0–20 μM Ca2+-free, Mg2+-bound GCAP1, HEK cell membranes, 30 min [2]: 2.93 µM

— article PMC3935488
